Test results taken from PMC10998906 (NPJ Vaccines, 2024).

Target: H5 GCN4 (IN05 HA, GCN4-trimerized) (Influenza A virus …, UniProt A5A5L7, stabilised)
Assay: negative-stain EM
Conditions: both partners purified

B1: CR9114 Fab (Fab, V domains shown)
VH: QVQLVQSGAEVKKPGSSVKVSCKSSGGTSNNYAISWVRQAPGQGLDWMGGISPIFGSTAYAQKFQGRVTISADIFSNTAYMELNSLTSEDTAVYFCARHGNYYYYSGMDVWGQGTTVTVSS
VL: QSALTQPPAVSGTPGQRVTISCSGSDSNIGRRSVNWYQQFPGTAPKLLIYSNDQRPSVVPDRFSGSKSGTSASLAISGLQSEDEAEYYCAAWDDSLKGAVFGGGTQLTVL
  stoichiometry N: 3 Fabs per trimer
